Reference: US20120077731A1 (Ablynx, published 2012)
Where “and” joins values, the source holds several entries; their conditions need not be identical. Equal entries are not always repeated.

T1: Human membrane IL-6R on cells (human, UniProt P08887 20-468)
T1 sequence (looked up): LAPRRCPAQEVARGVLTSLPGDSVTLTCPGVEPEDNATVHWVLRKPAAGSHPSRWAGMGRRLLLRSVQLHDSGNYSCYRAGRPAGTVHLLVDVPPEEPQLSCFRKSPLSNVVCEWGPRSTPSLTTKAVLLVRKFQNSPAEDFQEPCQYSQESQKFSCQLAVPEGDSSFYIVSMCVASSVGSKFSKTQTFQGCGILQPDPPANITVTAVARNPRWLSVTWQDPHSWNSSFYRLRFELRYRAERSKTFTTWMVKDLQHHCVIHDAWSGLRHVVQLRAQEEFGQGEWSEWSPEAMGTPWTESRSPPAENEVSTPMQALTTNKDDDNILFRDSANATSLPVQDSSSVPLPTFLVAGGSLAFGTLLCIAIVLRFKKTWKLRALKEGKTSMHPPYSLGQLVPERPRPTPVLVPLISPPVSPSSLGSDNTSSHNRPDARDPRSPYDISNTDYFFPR

T2: Human soluble IL-6R (human, UniProt P08887 20-358)
T2 construct: Soluble recombinant form; biotinylated in some assays; also called hIL-6R; human IL-6R
T2 sequence (looked up): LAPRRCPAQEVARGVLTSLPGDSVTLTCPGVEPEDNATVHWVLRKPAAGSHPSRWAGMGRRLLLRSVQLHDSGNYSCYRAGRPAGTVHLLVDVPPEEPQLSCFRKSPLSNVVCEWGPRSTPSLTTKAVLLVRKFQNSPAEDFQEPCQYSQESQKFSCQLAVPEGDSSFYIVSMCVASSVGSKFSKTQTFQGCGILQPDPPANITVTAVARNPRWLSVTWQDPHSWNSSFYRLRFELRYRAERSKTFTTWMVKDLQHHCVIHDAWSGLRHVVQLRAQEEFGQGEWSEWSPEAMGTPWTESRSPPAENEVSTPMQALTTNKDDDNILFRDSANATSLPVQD

T3: Mouse IL-6R (mouse, UniProt P22272 20-364, limits assumed)
T3 construct: also called mouse sIL-6R
T3 sequence (looked up): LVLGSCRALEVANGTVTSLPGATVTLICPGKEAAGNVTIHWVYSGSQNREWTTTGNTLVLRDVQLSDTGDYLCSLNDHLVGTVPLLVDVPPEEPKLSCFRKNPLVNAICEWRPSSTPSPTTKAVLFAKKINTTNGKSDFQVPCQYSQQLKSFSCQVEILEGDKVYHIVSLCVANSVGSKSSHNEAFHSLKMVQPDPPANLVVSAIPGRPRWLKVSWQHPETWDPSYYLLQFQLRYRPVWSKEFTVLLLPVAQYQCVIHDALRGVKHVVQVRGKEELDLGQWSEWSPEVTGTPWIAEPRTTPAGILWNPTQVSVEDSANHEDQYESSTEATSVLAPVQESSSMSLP


Legend:
[1] = molecular target: T1, Human membrane IL-6R on cells; assay: cell-based or functional assay
Human soluble IL-6R [2] = molecular target: T2, Human soluble IL-6R; assay: Biacore off-rate, periplasmic extract
Human soluble IL-6R [3] = molecular target: T2, Human soluble IL-6R; assay: inhibition of the IL-6/IL-6R interaction, summary table C-13
Description: (§1) Finally streptavidin donor beads were added and after 1 hour incubator the plate was read on the Envision microplate reader.

Human soluble IL-6R [4] = molecular target: T2, Human soluble IL-6R; assay: competition for IL-6R, competitor reference Fab, summary table C-13
Human soluble IL-6R [5] = molecular target: T2, Human soluble IL-6R; assay: Alphascreen, 100 nM Nanobody, 0.4 nM bio-IL-6R; competitor: reference Fab
Human soluble IL-6R [6] = molecular target: T2, Human soluble IL-6R; assay: Alphascreen, inhibition of bio-IL-6 binding to IL-6R
Description: as §1

[7] = molecular target: T1, Human membrane IL-6R on cells; assay: cell-based or functional assay; remark: listed apart in the source
Human soluble IL-6R [8] = molecular target: T2, Human soluble IL-6R; assay: SPR Biacore 3000, IL-6R amine-coupled to CM5
Description: (§2) Nanobodies were injected at 5 different concentrations between 1 and 50 nM. Flow rate was 45 μl/min in all experiments. Association and dissociation phase were 3 and 10 min, respectively. The chip was regenerated using Glycine/HCl pH 1.5.

Mouse IL-6R = molecular target: T3, Mouse IL-6R; assay: ELISA: plate coated with 1 µg/ml mouse IL-6R, 500 nM Nanobody, anti-myc + anti-mouse-HRP
Description: Detection was performed with anti-myc and anti-mouse-HRP as first and second antibody respectively.

[9] = molecular target: T1, Human membrane IL-6R on cells; assay: cell-based or functional assay; remark: listed apart in the source
Human soluble IL-6R [10] = molecular target: T2, Human soluble IL-6R; assay: summary table C-13 of Nanobody characteristics, Kd on IL-6R
Description: as §2

Human soluble IL-6R [11] = molecular target: T2, Human soluble IL-6R; assay: Biacore off-rate, periplasmic extracts

Binder	IC50 (nM), TF1 cell proliferation [1]	koff (Human soluble IL-6R [2])	IC50 (Human soluble IL-6R [3])	Ref Fab competition (%) (Human soluble IL-6R [4])	Residual reference-Fab binding to IL-6R (%) (Human soluble IL-6R [5])	IC50 (Human soluble IL-6R [6])	IC50 (nM) + HSA, XG-1 cell proliferation [7]	IC50 (nM), XG-1 cell proliferation [7]	Kd (Human soluble IL-6R [8])	koff (Human soluble IL-6R [8])	kon (Human soluble IL-6R [8])	binding result (Mouse IL-6R)	IC50 (nM) XG-1 [9]	Kd (Human soluble IL-6R [10])	koff (Human soluble IL-6R [11])
IL6R09 (VHH, also called PMP34G9; not shown: C-terminal c-myc and (His)6 tags) VHH: EVQLVESGGGLVQAGGSLRLSCAASGRTSSSYDMTWYRQVPGKEREFVAVISWSGGSTYYADSVKGRFTISRDNAKNTVYLQMNSLKPEDTAIYYCNAYTGGGDDYWGQGTQVTVSS	8.7 nM	0.00139 s⁻¹	0.24 nM	62%	62%	0.238 nM	3 nM	2.7 nM	2 nM and 1.2 nM	0.00129 s⁻¹ and 0.0013 s⁻¹ and 0.00139 s⁻¹	641000 M⁻¹ s⁻¹ and 1.11e+06 M⁻¹ s⁻¹	no binding (tested: 500 nM)	2.7 nM	2 nM	
IL6R11 (VHH, also called PMP35E11; not shown: C-terminal c-myc and (His)6 tags) VHH: EVQLVESGGGLVQAGGSLRLSCAASGFTFDDYAIGWFRQAPGKEHEGVSCISSSDGSTYYADSVKGRFTISSDNAKNTVYLQMNSLKPEDTAVYYCAAERDVPARSLCGSYYWYDYRGQGTQVTVSS	9.9 nM	0.000417 s⁻¹	0.16 nM	40%	40%	0.158 nM		5.4 nM	0.9 nM and 1.9 nM	0.00034 s⁻¹ and 0.000396 s⁻¹ and 0.000417 s⁻¹	391000 M⁻¹ s⁻¹ and 215000 M⁻¹ s⁻¹	no binding (tested: 500 nM)	5.4 nM	0.9 nM	
IL6R12 (VHH, also called PMP35F4; not shown: C-terminal c-myc and (His)6 tags) VHH: EVQLVESGGGLVQAGGSLRLSCAASGRTFSSYDMGWYRQAPGKEREFVAIITWNSSTYYADSVKGRFTISRDNAKNTVYLQMNSLKPEDTAIYYCNAQYGLGYAEDYWGQGTQVTVSS	6.8 nM	0.000896 s⁻¹	0.52 nM	103%	103%	0.517 nM		2.8 nM	1.7 nM	0.00116 s⁻¹ and 0.000896 s⁻¹	678000 M⁻¹ s⁻¹	no binding (tested: 500 nM)	2.8 nM	1.7 nM	
IL6R85 (VHH, IL6R13 variant, tested as periplasmic extract) VHH: EVQLVESGGGLVQPGGSLRLSCAASGFTFDDYGMSWVRQAPGRGLEWVSAISWNGNNTYYTESMKGRFTISRDNAKNTLYLQMNSLRPEDTAVYYCVKGSTAIVGVPPTYPDEYDYWGQGTLVTVSS															0.0021 s⁻¹
IL6R86 (VHH, IL6R13 variant, tested as periplasmic extract) VHH: EVQLVESGGGLVQPGGSLRLSCAASGFTFDDYGMSWVRQAPGRALEWVSAISWNGNNTYYTESMKGRFTISRDNAKNTLYLQMNSLRPEDTAVYYCVKGSTAIVGVPPTYPDEYDYWGQGTLVTVSS															0.0017 s⁻¹
IL6R87 (VHH, IL6R13 variant, tested as periplasmic extract) VHH: EVQLVESGGGLVQPGGSLRLSCAASGFTFDDYGMSWVRQAPGKATEWVSAISWNGNNTYYTESMKGRFTISRDNAKNTLYLQMNSLRPEDTAVYYCVKGSTAIVGVPPTYPDEYDYWGQGTLVTVSS															0.00011 s⁻¹
IL6R89 (VHH, IL6R13 variant, tested as periplasmic extract) VHH: EVQLVESGGGLVQPGGSLRLSCAASGFTFDDYGMSWVRQAPGRGTEWVSAISWNGNNTYYTESMKGRFTISRDNAKNTLYLQMNSLRPEDTAVYYCVKGSTAIVGVPPTYPDEYDYWGQGTLVTVSS															0.00019 s⁻¹
IL6R90 (VHH, IL6R13 variant, tested as periplasmic extract) VHH: EVQLVESGGGLVQPGGSLRLSCAASGFTFDDYGMSWVRQAPGKALEWVSAISWNGNNTYYTESMKGRFTISRDNAKNTLYLQMNSLRPEDTAVYYCVKGSTAIVGVPPTYPDEYDYWGQGTLVTVSS															0.0019 s⁻¹
IL6R14 (VHH, also called PMP40H5; not shown: C-terminal c-myc and (His)6 tags) VHH: EVQLVESGGGLVQPGGSLRLSCAASGFSLDYYAIGWFRQAPGKEREGVSCMDSSSGTTSTYYSDSVKGRFTISRDDAKNTVYLQMNSLKPEDTAVYYCAADGHLNWGQRYVPCSQISWRGWNDYWGQGTQVTVSS	1.5 nM	0.000114 s⁻¹	0.22 nM	96%	96%	0.222 nM	0.8 nM	0.6 nM	0.3 nM	0.0001 s⁻¹ and 0.000114 s⁻¹	402000 M⁻¹ s⁻¹	no binding (tested: 500 nM)	0.6 nM	0.3 nM	
IL6R10 (VHH, also called PMP35C10; not shown: C-terminal c-myc and (His)6 tags) VHH: EVQLVESGGGLVQAGGSLRLSCAASGRTFSSYDMGWYRQAPGKEREFVAVIHWSSGSTYYADPVKGRFTISRDNAKNTVYLQMNSLKPEDTAIYYCNAFLPGPEGFHDYWGQGTQVTVSS	9.9 nM	0.000509 s⁻¹	0.6 nM	102%	102%	0.596 nM		2.5 nM	1.3 nM	0.000526 s⁻¹ and 0.000509 s⁻¹	414000 M⁻¹ s⁻¹	no binding (tested: 500 nM)	2.5 nM	1.3 nM	
IL6R05 (VHH, also called PMP32E10; not shown: C-terminal c-myc and (His)6 tags) VHH: EVQLVESGGGLVQPGGSLRLSCAASGFTFGSYDMSWVRQAPGKGPEWVSAINSGGGSTYYADSVKGRFTISRDNAKNTLYLQMNSLKPEDTAVYYCATDWRYSDYDLPLPPPGDYWGQGTQVTVSS	38 nM	0.00127 s⁻¹	0.63 nM	64%	64%	0.626 nM		7.3 nM	9.8 nM	0.00141 s⁻¹ and 0.00127 s⁻¹	144000 M⁻¹ s⁻¹	no binding (tested: 500 nM)	7.3 nM	9.8 nM	
IL6R07 (VHH, also called PMP33A3; not shown: C-terminal c-myc and (His)6 tags) VHH: EVQLVESGGGLVQPGGSLRLSCAASGFTLDYGAIGWFRQAPGKEREGVSCISSSTGSTYYADSVKGRFTISRDNGKNTVYLQMNSLKPEDTAVYYCAADKMWSPCLVAANEEALFEYDYWGQGTQVTVSS	375 nM	0.000242 s⁻¹	1.44 nM	80%	80%	1.44 nM		50.5 nM		0.000242 s⁻¹		no binding (tested: 500 nM)	50.5 nM		
IL6R08 (VHH, also called PMP34A12; not shown: C-terminal c-myc and (His)6 tags) VHH: EVQLVESGGGLVQPGGSLRLSCVASGFSLDYYVIGWFRQAPGKEREGVSCISSSDGSTYYADSVKGRFTISRDNAKNTVYLQMNSLKPEDTAVYYCAADLLRTPEFCVDSAPYDYWGQGTQVTVSS	24.3 nM		1.18 nM	99%	99%	1.18 nM		36.6 nM	10.2 nM	0.00197 s⁻¹	194000 M⁻¹ s⁻¹	no binding (tested: 500 nM)	36.6 nM	10.2 nM	
